Laboratory results from the DeepSol protein solubility set.

Experiment: soluble on expression in E. coli; label from the status in PepcDB or PDB records

Sequence	soluble on expression in E. coli
MERSLDSLAGMAKSAFGAGTSAAMRQATSPKTILEYIINFFTCGGIRRRNETQYQELIETMAETLKSTMPDRGAPLPENIILDDMDGCRVEFNLPGENNEAGQVIVRVSKGDHSETREIPLASFEKICRALLFRCEFSLPQDSVILTAQGGMNLKGAVLTGANLTSENLCDADLSGANLEGAVLFMADCEGANFKGANLSGTSLGDSNFKNACLEDSIMCGATLDHANLTGANLQHASLLGCSMIECNCSGANMDHTNLSGATLIRADMSGATLQGATIMAAIMEGAVLTRANLRKASFISTNLDGADLAEANLNNTCFKDCTLTDLRTEDATMSTSTQTLFNEFYSENI	not soluble
MELKARAVGVEIIPKGKIIYYSVPNGDEYERGDLVLVLGDFGLEVGKVLIPPREVVIDEVGYELKAVIRKLTDEDLEQYRKNVEDALKAFQICKQKIKEHGLPMKLLYAKYTFDRTRLIFFFSAEGRVDFRELVRDLAKIFKTRIELRQVGVRDEMKFFGGLGLCGLPTCCSTFLREFTSVTLKHAKKQQMMINPAKISGPCRRLLCCLTYEYDFYEKELEGIPDEGSTITYEGKRYKVVNVNVFLRTVTLFSEQEGEMIKLPFDYFRKGE	soluble
AKDAAFTVDGLSLTSKTNTVSTAISGMTFDLVAPSAAGATTTVTVATNTDGLKASLQSFVDSYNTLATLVTSLTKGSISDKGVFTAAALTGDATPRALLATIRDQLAGASSRAGLSALSQLGIKTQQSNGTLSLDTATFTAALNDKKLGSQIQTMFTGTGATNADGTVDGGLVARMSKALLPYTKADGVLASKTSSLTKVQTRIASDQDALDRRIESLTASLTKKYNAMDLVVGQLKATATSITSIFEAMNAQKNAS	not soluble
SAEAEGLADWMSKLNETFTTVPLCYIAIPGSHDAMAYSLDMDSPLLEPDSLITMDLICCGCCRSIVKNWSITQDKTISEQLDAGMRYFDLRVAGKPGSSDFFFYHGLYTTITVKEAMEEVDTWLGKHSKEVVILAFSHFKEMSTEQHTKLMTFLKDHFKAKLCPDDGMPSLKDCWDKAYQVILSYDDRNRKQDRVLWPGIKYWWANNSDPNEAILFLDNKKQSGRPKGFFVAGLNLTFYGCSIFSNLTASLKEKTVTAYPLLLDWVKKQRPGSDTQSINIIAGDFFDVNSFAQDIIQLNDAKTN	soluble
MGEAVEVMFGNGFPEIHKATSPTQTLHSNQQDCHWYEETIDDDLKWSFALNSVLHQGTSEYQDIALLDTKRFGKVLVIDGKMQSAERDEFIYHECLIHPALLFHPNSPKTVFIMGGGEGSAAREILKHTTIEKVVMCDIDQEVVDFCRRFLTVNSDAFCNKKLELVIKDAKAELEKREEKFDIIVGDLADPVEGGPCYQLYTKSFYQNILKPKLSPNGIFVTQAGPAGIFTHKEVFTSIYNTMKQVFKYVKAYTAHVPSFADTWGWVMASDHEFDVEVDEMDRRIEERVNGELMYLNAPSFVSAATLNKTISLALEKETEVYSEENARFIHGHGVAYRHI	soluble
MGRAFEYRRAAKEKRWDKMSKVFPKLAKAITLAAKDGGSEPDTNAKLRTAILNAKAQNMPKDNIDAAIKRASSKEGNLSEITYEGKANFGVLIIMECMTDNPTRTIANLKSYFNKTQGASIVPNGSLEFMFNRKSVFECLKNEVENLKLSLEDLEFALIDYGLEELEEVEDKIIIRGDYNSFKLLNEGFESLKLPILKASLQRIATTPIELNDEQMELTEKLLDRIEDDDDVVALYTNIELEHHHHHH	soluble
MAFDGCCPDCKLPGDDCPLIWGACNHAFHLHCILKWVNSQTSQAHCPMCRREWQFKE	soluble
MILGPDGKPIKKPETSEIARVLHTFSAFMKSLPNPDIILKKTGKTAEIFEEMKTDAHVWAELTKRKSGVLSKDWDILPASNDRRDLEIAAFVKETFERLNFDQDMRTKTCGKCSMPCSRAGTCTN	not soluble
MISNQILQNTIEGIKSISRVDLHVADTDGKIIASTSQLGDEFGHAIISFVNSPADSQSVQEYQFFKVYDESQLELILIAQGTSDDVFMVGKMAAFQIQNLLVAYKERFDKDNFIKNLLLDNLLLVDIYNRSKKLYIDVDARRCVCIIETKNEKDSVALETVRTLFSGNKKDFITAVDEKSIILVKELEEKQGYEDIEKIARTIVDMLNTEAMVKATVAYGTIVKEIKEVSRSYKEARMALDVGKIFFSTKNVIAYNNLGIGRLIYQLPIPLCKMFISEIFEGKSPDEFDEETLTTINKFFENSLNVSETSRQLYIHRNTLVYRLDKLQKSTGLDLRVFEDAITFKIALMVVKYMKYMENTDF	not soluble
MRLRVDVIPGEHLAYPDVVLVVDVIRATTTAAAFLEAGAEALYWTPSLESALAFKDEDVVLAGETGGLKPPRFDLGNSPREALSAQVAGRVVVMSTTNGTKAAHAAARTAKHVLLASLYNAHAAARLARELATEEVAILCAGKEGRAGLDDLYTAGVLAEYLGFLGEVEPEDGARVALAVKRAYPDPLEALSLSAAALALKQVGLEADVPFCAQVAKSAAVPVLRGRVGEALIFKRA	soluble
MKIAIASGKGGTGKTTVAVNLALALEEVQLFDCDVEEPNCNLFLGFEMEPVEEVVFLVPEINPDKCTLCRGCSDFCRYNALAAIPNRILSFPSLCHGCGGCSFVCPAGAIEEKPETIGIIQKALSDSPLTFFCGTLKIGKATATPVIKSLQNHIDESRPAIIDSPPGTACPVLAVMGFADYCVLVTESTPFGFHDFCLALEAARALNVPVGVVLNRDGLGDSRVEDFCRAEGIPILLRIPNDRTIARLYSEGIPFVKEMPEWKKQFKDMFETIKTGLYESKGVQLEHHHHHH	not soluble
MTTIDLNCDLGESFGAYKMGNDDEILPFVSSINVACGFHAGDPSIMRQTVEKALEHNVAIGAHPGFPDLIGFGRRNMNVSASEVYDYVLYQTGALDAFVKAAGGKMQHVKPHGALYNMAASNPEIADAIAKAIYHINPSLLLYGLANSEAFIQAAEKYKVTLVQEAFADRTYKQDGTLTSRTEENALIKDEDEAIKQVLQMVKEGYVNSVNGEKVAVQAQTICLHGDGEKAVQFAERIYRTFKLNGISICAPKLEHHHHHH	soluble
MFSPTFKSFLLLCLLVVNSWAQDPTTTATSTTTVPSTSTVTTTTVASTSSGSTTASTAAGGSTSTTAAGGSTASTAAGGSTSTTAAGGSTASTAAGGPTGSTAAGGSTASTAAGGSTASTAAGGSTASTVAGATSVVPSSPAPPTQPPVNNGCELGWKFFNRPSGGWCIKVFPGYFALKEHAENACQANGAATLTGLQNKAEALFIQCEYRNSPYFSCFSCFQNSVLGYCSSTVEVLYEYSSMLSEMSAPSGSVWIGIHRTPACNRKPLSAQCNKNTAFRWTDKSATGVDGFVFQRGQPDNGGRALNQNCALLLASSKPFIDAGGRYYAAQMEDVHCNATFVPGNMARKTSGYACGKPNKCQPGWKFFDRQSGGWCMKVFTGFHAAKVDAEAACKDVGATLSGLENKEEAIFIQNALLARISQASGSVWIGIQRKAECLGKGLTASGTPTTSFEWTDNSASGVGGMVFQAGQPDNGVTALNQNCALLLASSQPYIDARGRFYAATMEDVPCVANFVASNEARRTRGYVCGKPL	not soluble
MEIIKIDSHKDIEQQEDSVLVLGYFDGLHRGHKELFNQAREIAQKMQLKIVVLTFPESPQLAFTRFEPDLLNHINYPEKRYCKFAEYGVDCLYLTDFTSSFAKISSDDFIKNYIKALKAKAVVMGFDYKFSHSKANSDYLKHHFAGQVITVPEVQYEGKKISSTRVRQLIKQGDMTQVNRLLGYEFSTRGIVVHGDARGRTIGFPTANLAPLDRTYLPADGVYVADVIVGRKRYRSMTSIGKNITFGGTELRLEANIFDFDDDIYGETIEIFWLNKIREMVKFNSVNDLVEQLKSDKEIAINWGKS	not soluble
MPREYEFAEKILFTEEEIRTRIKEVAKRIADDYKGKGLRPYVNPLVLISVLRGSFMFTADLCRALCDFNVPVRMEFICVSSYGEGLTSSGQVRMLLDTRHSIEGHHVLIVEDIVDTALTLNYLYHMYFTRRPASLKTVVLLDKREGRRVPFSADYVVANIPNAFVIGYGLDYDDTYRELRDIVVLRPEVYAEREAARQKKQRAIGSADTDRDAKREFHSKY	soluble
EQPFYRTKVKLKKEIVTLGVPGVDPNKQVGQYVEAKDWNALISDPEVLLIDTRNDYEVAIGTFEGAVDPKTRSFREFPEYIKAHYDPARHKKVAMFCTGGIRCEKASSYMLGAGFEEVFHLKGGILKYLEEVPQEQSLWRGDCFVFDNRVTVRHDLSEGEYDQCHA	not soluble
MRKVRIANEQTEESDIIKIVHLSDIHFSEAYYMPEIADSMLQIINESSPDIVIITGDLTENGFAAEYNGAKNFIDKIECKNKVIVPGNHDSKNAGYLFFEDIFKARSSSGYFGDVTVIGLDSSQPELDDGHIGRENYGWIESTFSTGSFKVFALHHHLIPIPKTGRGNNVLVDAGDVLELLDRSGVNLVLCGHWHIPWVWRLNDMFIISAGTVCSSKIRGKTSQCYNLIELETPESECTRWHLRITRVFSSGIKELVVDNIV	not soluble
MRRAEMLLLKSLAETLMADRDNRHDDLQATMRLAHLSSPEMILYMVNRVLELEESIERIAAVLQKLSADEPMPLEETPPEPAFEPALQSRATETAET	not soluble
MSLKVTIKDIATICGVSAGTVDRALNNRTGISEKTREKILKTAKELNYRPDYTARSLVMGKTMTIGVVLFDLYNRSFAQLLNAIELKARELGYFIYITLSDKNPENELNCIEHLVNRKVDGIILFTVNKGEQFEANLSKWGIPIITIFNYVSEKWEYIGIQERQAMKEAVDYIASKRYKKFIYISPPLTYLGKNNIYTQEERLNGFYDGLKSNGITSKPLIIKNSEYIKELDNITFSQDGKVAIVCATDLYALEVMNYLKEKGFNIPEQVGVMGFDDIDMLKYITPRLTTVKYPIDEIGRRAIESMVNKINHGHFISTPLLNYQIIKGESIEGHHHHHH	soluble
MSLGNYAKPIGTAPVTANPTDYSSALVCLNQYARTNRIVAPRIAIGRIADYTGKEESDGSGRKVTQGASLMAVSAFAKAGMPLVERFDTSVSEFELKYANNKLISDRPNPAPDAPADFRKILAGQVPGSDFYVIGGITELNYNIRSAGIDAYAGDKDTDGLKGNFRRRVFIMNIALDLRLVNTRTLEVVDVISYQKQVVGREVSAGVFDFLNGNLFDISAGRGALEPMQLAVRALIERATVEMAANLYGMPGPESCLRFDPFGDATVGQTGAFTPAYNNLGTNNAQTRDDPSRWNARRDPDIRDAKRGRYEGHHHHHH	not soluble
MKVLITSGGTTEPIDNVRGISNFATGSLGKVTAENFLNAGHEVYLLAGLQAKLPEFTDRLTYIPIEGTHDLYEQMKNLVPDMDVVIHSMAVSDYRPIYMTGLENFTDKFSKEELLNFRPEKVGKISSKSDYQIMLLEKTPKIISYIKEWNPNVLLFGFKLLVGVEKSELLSVAREKLLTNHADFILANDLENIHGNDHQAFLVSKNHEITLKTKAEIADRLLKTSEELKND	soluble
MGSDKIHHHHHHMQLKRMGYAQTKIRQGPNHRDGEQVTFLDVKQFFGLGHVRVGSWVSSEESLIAANMVFDALADLALVLGLPPKVMGLRERLNLAFGHGGQQGVMAHYSPSERTLALAKHAGAGAVAHEFWHAFDHHLSDTAMDIGRSQKARFASELWLNDVPLLCHPLNDRLEALFQSVLLSGDGEHPSDYVRRAIQLDKTYGRLYFSHPSELMARAFEAAIESEGDFEQVDTDSGEIHLLPLINPYLVTGTLEDIKTENKGELLPKFGSWGAMPQGAFPTPIHRQAIMKAMAGYFRPLGRALAKTLS	not soluble
MGSDKIHHHHHHMFSLEQLEAFMETVESGSFSNAARQLKKAQSVVSQHVMNLEIDCGVELFDRSGRYPVLTAEGSKLLPYARATILQHRRLKHTALSLFSRQSSEVCLAMDEGIPIQRISEIIQLLESDFPNIELEFLSASSIDIIDMVHSGRASTGLIFSELSMPSSIDFESIGVIEFDLYVASSHPLAKSVAPNMDSLRLYRQLCIRSRNTKTSSFQQVFSPDVWYADNYYVLLELALQGHGWCLLPEHMASSSVSSGNLTRVPIEFEQIGWYANVDVIQHQDKSSLPLLKRLRQLFRELLVGQK	not soluble
